The record followed here is the nanobody polyreactivity screen of Harvey et al. (2022).

The data set is described as follows: yeast display, Sf9 membrane polyspecificity reagent, FACS + sequencing; frameworks hold sequencing errors. Summed up:
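A synthetic nanobody library was expressed on Saccharomyces cerevisiae BJ5465 by galactose induction for 36–48 hours. The library was stained for 1 hour at 4 °C with 10% biotinylated, detergent-solubilized Sf9 membrane reagent and enriched with streptavidin microbeads before FACS. Low and high (top ~1%) gates were set on anti-HA fluorescence for expression and streptavidin fluorescence for reagent binding, and each polyreactivity label reflects the gate of origin.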
“QVQLVESGGCLVQAGGSLRLSSAASGFTFDKYAMGWYRQAPGKEMELVAAISGSGGTTYYADSVKGRFTISRDNAKNTVYLQMNSLKPEDTAVYYCATRLYSIYSYGYWGQGTQVTVSS”: the “polyreactivity (PSR sort gate)” value is “high polyreactivity”.

Take “QVQLVESGGCLVQAGGSLRLSSAASGSTFQNYAMGWYRQATGKERELVAAISSGGRTYYADSVKGRFTISRDNAKNTVYLQMYSLKPEDTAVYYCAVRYRVYKFQYGYWGQGTQVTVSS”: the “polyreactivity (PSR sort gate)” value is recorded as “high polyreactivity”.

Take “QVQLVESGGCLVQAGGSLRLSSAASGSTFYYYVMGLYRQAPGKERELVAAINSGGSTYYADSVQGRFTISRDNAKNTVYLQMNSLKPEDTAVYYCAKSCSYWYQYYYWGQGSQVTVSS”: the “polyreactivity (PSR sort gate)” value is reported as “low polyreactivity”.

Turning to “QVQLVESGGCLVQAGGSLRLTCAASGIIFYAYAMGWYRQAPGKEREFVAAINNSGGRTYYADSVKGRFTISRDNAKNTVYLQMHSLKPEDTAVYYCAVYSYYRRTYRREMDYWGQGTQVTVSS”, the “polyreactivity (PSR sort gate)” value was “high polyreactivity”.

On to “QVQLVESGGCLVQAGRSLRLSCAASGRTFPTYAMGWYRQAPGKERELVAAIRISGGRTYYADSVKGRFTISRDISKNTVYLQMNSLKPEDTAVYYCATRDRAGYYYWGQGTQVTVSS”, for which the “polyreactivity (PSR sort gate)” value is “high polyreactivity”.

On to “QVQLVESGGCLVQARGSLRLRCAASGGTFYAYAMGWYREAPGKERELVAAISRSGSTYYADSVKGRFTISRDNAKNTVYLQMNSLKPEDTAVYYCAARRARRDPVGYVYAKYVYWGQGTQVTVSS”, for which the “polyreactivity (PSR sort gate)” value was “high polyreactivity”.

In the case of “QVQLVESGGCLVQGGGSLRLTWAASGRTFPYNNMRRYRQAPGKERELVASITYTDGSTSYADCVKGRFTISRDNAKNTVYLQMNSLKPQDTADYYCAAVYYAHQDYRFDYWGQGTQVTVSS”, the “polyreactivity (PSR sort gate)” value was “low polyreactivity”.

For the sequence “QVQLVESGGCSVQAGGSLRLICAASGYTFYINAMGWYRPAPGKERELVAVITWSSGSTYYADSVKGRFTISRDNAKNTVYLQMYSLKAEDTAVYYCAADVTYEDGAWTIQYDYWGQGTQVTVSS”, the “polyreactivity (PSR sort gate)” value is recorded as “high polyreactivity”.

“QVQLVESGGCVVQAGGSLRLICAASGRTFGRNVMGWYRQAPGKEMELVAAISRSGGSTYYADSVKGRFTISRDNAKNTVYLQMNSLKPEDTAVYYCAAYSVGDYYWGQGTQVTVSS”: the “polyreactivity (PSR sort gate)” value is on record as “high polyreactivity”.

With “QVQLVESGGDLVQAGGSLRLSCAASGSIFYINAMGWYRQAPGKERELVASISYSGTSTYYADSVKGRFTISRDNAKNTVYLQMNSLKPEDTAVYYCNAEDTPGAGDGYWGQGTQVTVSS”, the “polyreactivity (PSR sort gate)” value is “low polyreactivity”.

Regarding “QVQLVESGGFLDQAGGSLRLSCAASGFTFYYYAMGWYRQAHAKERELVAAITARGVSTYYADSVKGRFTISRDNAKNTVYLQMNRLNPEDTAVYYCAKRRYYYAPAIPGYYYWGQGTKVTVSS”, the “polyreactivity (PSR sort gate)” value is recorded as “high polyreactivity”.

As to “QVQLVESGGFLVQAGGSLRLTCAASGSIIENNAMGWSRQAPRKERELVDAISSDDTTNYADSVKGRFTISRDNAKNTVYLLMNRLLPVDTAVYYCNVDSGPEDKTVTYDYWGQGTQVTVSS”, the “polyreactivity (PSR sort gate)” value is reported as “low polyreactivity”.

As for “QVQLVESGGGFVQAGASLRLSCAASGRTCHGYAMGWYRQAPGKERDLVAAINASGGRTYYAESVKGRFTISRDNAKNTVYLLMNSLNPEDTAVYYCGVYSASFRYGLANDYWGQGTQVTVSS”, the “polyreactivity (PSR sort gate)” value is reported as “high polyreactivity”.

Take “QVQLVESGGGFVQAGCSLRLSCAASGSIFLYNAMGWYRQAPGNDRELVATISYIGGRTYYADSVKGRFSISRDKAKNTVYSQMNSLKPEDTAVYYCAAEYYVISSPSFYEYDYWGQGTQVTVSS”: the “polyreactivity (PSR sort gate)” value is “low polyreactivity”.

In the case of “QVQLVESGGGFVQAGGSLRLSCAACGRIFATYAMRWYRQAPGKERELVASFSYSDGSTYADSVKGRFTISRDNAKNTVYLQMNSLKPEDTAVYYCAAERLTHWGAFAAYDYWGQGTQVTVSS”, the “polyreactivity (PSR sort gate)” value is “low polyreactivity”.

Consider “QVQLVESGGGFVQAGGSLRLSCAASGFTFQYYGMGWYRQAPGKERELVAAINWSGGRTYYADSVKGRFTISRDNAKNTVYLQMNSLKPEDTAVYYCAATRSFSGGYGYVSYDYWGQGTQVTVSS”, for which the “polyreactivity (PSR sort gate)” value is “high polyreactivity”.

For the sequence “QVQLVESGGGFVQAGGSLRLSCAASGIIFDYDAMGWYRQAPGKERELVAAISKRGGSTYYADSVKGRFTISRDHAKNTVYFQMNSLKPEDTAVYYCAAVYAREAKRYDYWGPGTQVTVSS”, the “polyreactivity (PSR sort gate)” value is reported as “high polyreactivity”.

For the sequence “QVQLVESGGGFVQAGGSLRLSCAASGIIFEYYTMGWYRQAPGKERELVASINYDGDSTYYADSVKGRFTISRDNAKNTVYLQMNSLKPEDTAVYYCSAEFYYVYSSFGHYYWGQGTQVTVSS”, the “polyreactivity (PSR sort gate)” value was “low polyreactivity”.

Consider “QVQLVESGGGFVQAGGSLRLSCAASGIIFTLYTMGWYIQAPGKERELVASISTRGGSTYYADSVKGRFTISRDYAKNTVYLQMNSLKPEDTAVYYCAAQGGYPVWRYYYWGQGTQVTVSS”, for which the “polyreactivity (PSR sort gate)” value is on record as “high polyreactivity”.

As for “QVQLVESGGGFVQAGGSLRLSCAASGLTLFRYAMGWYSQAPGKEREFVAAISPSGDRTYYADSVKGRFTISRDNAKNTVDLQMNSLKPEDTAVYYCNAWRYDYWGQGTQVTVSS”, the “polyreactivity (PSR sort gate)” value is on record as “high polyreactivity”.

On to “QVQLVESGGGFVQAGGSLRLSCAASGRIFHHNAMGGYRQAPGKVRELDATITKSGGSTYADSVKGRFTISRANAKNTVYLQMNSRKPEETAVYSCAATSVGAYGVRKYWYDYWAQGTQVTVSS”, for which the “polyreactivity (PSR sort gate)” value was “low polyreactivity”.

For the sequence “QVQLVESGGGFVQAGGSLRLSCAASGRIFRIYAMGWYRQAPGKERELVAAITYRGGSTNYADSVKGRFTISRDNAKNTVYVQINSLKPEDTAVYDCAARSVYYGYTGYSYWGPGTQVTVSS”, the “polyreactivity (PSR sort gate)” value is “high polyreactivity”.

Take “QVQLVESGGGFVQAGGSLRLSCAASGRIFRLYAMGWYRQAPGKEREFVAAITFSGGRTYYADSVKGRFTISRDNAKNNVYLQMNSLKPEDTAVYYCAARGQTGYYSGVGYWGQGTQVTVSS”: the “polyreactivity (PSR sort gate)” value is recorded as “high polyreactivity”.

Consider “QVQLVESGGGFVQAGGSLRLSCAASGSIFYYNAMGWYRQAPGKERELVAAIDWSGGITYYADSVKGRFTISRDNAKNTVYLQMNSLKPEDTAVYYCNVPMPPAKAEYGYWGQGTQVTVSS”, for which the “polyreactivity (PSR sort gate)” value is on record as “high polyreactivity”.

For the sequence “QVQLVESGGGFVQAGGSLRLSCAASGSTFHDYVMGWYRQAPGKERELVATIRRGASTYYADSVKGRFTISRDNEKNTVYLQMNSLIPEDTAVYYCAVPATGGYFSSEYDYWGQGTQVTVSS”, the “polyreactivity (PSR sort gate)” value is listed as “low polyreactivity”.

As for “QVQLVESGGGFVQAGGSLRLSCAASVIFGYYAMGWYSQAPGKERELVAAINWRGDSTYYADSVKGRFTISRDNAKNTVYLQMNSLKPEDTAVYYCAAQRRDIALLYDYWGQGTQVTLSS”, the “polyreactivity (PSR sort gate)” value is reported as “low polyreactivity”.

Regarding “QVQLVESGGGFVQAGGSLRLSCAASVSILWWYAMGWSRKATVKERELVAAITWSGTSTYYADSVKGRFTISRVNGKNTLYLQMISLKPEETAVYYCAVRSYVNGGWYDYWGQGTQGTVSS”, the “polyreactivity (PSR sort gate)” value is “high polyreactivity”.

With “QVQLVESGGGFVQAGGSLRLTCAASGYIFANYGMGWYRQAPGKQMELVAAISGSGGSTYYADSVKGRFTISRDNAKNTVYLQMNSLKPQDTAVYYCAALSNWWSYFTCYDGSDGFDYWVQGTQVTVSS”, the “polyreactivity (PSR sort gate)” value is reported as “low polyreactivity”.

Take “QVQLVESGGGFVQAGGSLRVSCAASGSIFRPDAMGWYRPAPGKERELVAAITWSGGRTYYADSVKGRFTISRDNAKNTVDLQMNSLKPEDTAVYYCAARPRYYYWFKSGTRVEYDYWGQGTQVTVSS”: the “polyreactivity (PSR sort gate)” value was “high polyreactivity”.

In the case of “QVQLVESGGGFVQAGGTLRLSCAASGFTFGYNAMGWYRHAPGKERELVAAISFSDGITYYADSVKRRFTISRDNAKNNVYLQMNSLKPEDTAVYYCAADLYFEYEYWGQGTQVTVSS”, the “polyreactivity (PSR sort gate)” value was “high polyreactivity”.

On to “QVQLVESGGGFVQAVGSLRLSCAASGSTFPRYVLGWYRQAPGTARELVAAITWRGSTNDADSVKGRFTISRDNAKNTVYLQMNSLKPEDSAVYYCAAAFFARDRKRYNYWGQGTQVTVSS”, for which the “polyreactivity (PSR sort gate)” value was “high polyreactivity”.

As to “QVQLVESGGGIDQAGGSLRLRCAASGSIFAYYAMGWYRQAPGKERELVAAISWNGGRTYYADSVKGRFTISRDNAKNTVYLQMNSLKPEDTAVYYCNAVRWAIYDYWGQGTQVTLSS”, the “polyreactivity (PSR sort gate)” value is listed as “high polyreactivity”.

On to “QVQLVESGGGIVHEGGSLRLSCAASGSIFFGYAMGWYRLAPGKELELVAAISASGGLTFYADSLKGRFTISRDNAKNTVYLQMNSLKPEDPAVYYCAKRGRSTYGYDYWGQGTQVTVSS”, for which the “polyreactivity (PSR sort gate)” value is “high polyreactivity”.

As for “QVQLVESGGGIVQAGASLRLSCSASGFTQYPYTMGWNRHAPGKESELVAAITSSGATTYYADSVKGRFTISRDNAKNTVYLQMNRLKTEVTAVYYCAAGRAAAFGYLGQGTQVTVSS”, the “polyreactivity (PSR sort gate)” value is on record as “high polyreactivity”.

With “QVQLVESGGGIVQAGCSLRLSCAASGSIFSHNAKVGYRQAPGKERELVAAITKGGGRTYYADSVKGRFTISRDNAKNTVYLQMNSLKPEDNAVYYCATAGAHGRERDYWGQGTQVTVSS”, the “polyreactivity (PSR sort gate)” value is listed as “high polyreactivity”.

Regarding “QVQLVESGGGIVQAGGILRLSCAASGRTLHYSAMVWYRQAPRIERELVAAISARGGRTYYADSVKGRYTISLDNAKNTVYLQMTSLKPEDTAVYYCAAAGYITGSDRYDYWGQGTLVTVSS”, the “polyreactivity (PSR sort gate)” value is given as “high polyreactivity”.

On to “QVQLVESGGGIVQAGGRLRLSCAASGRIFYYNAMGWYRQAPGQERELVAVISRNGGRTYYADSVKGRFTISRDNAKNTVSFQMNSLKPEDTAVYYCAARSAGDRYDYWGQGTQVTVSS”, for which the “polyreactivity (PSR sort gate)” value is listed as “high polyreactivity”.

For “QVQLVESGGGIVQAGGRLRLSCAASGSIFLQYTMGWYRQAPGKERELVAAITESDGSTYYADSVKGRFTISRDNAKNTVYLQMNSLKPEDTAVYYCAADVVYFKYWDKYDYWGQGTQVTLSS”, the “polyreactivity (PSR sort gate)” value is on record as “low polyreactivity”.

Take “QVQLVESGGGIVQAGGRLRLSCAASGYIFDIYAMGWNRQAPGKERELDADITRSGGGTYYADSVKGRFTISRDNAKNTVYLQMNSLKPEDTAVYYCAAESYVYGGSDYDYWGQGTQVTVSS”: the “polyreactivity (PSR sort gate)” value is on record as “low polyreactivity”.

Take “QVQLVESGGGIVQAGGSHRLSCAASGRIFGVNAMGWYRQATGKERELVAAISVSGDSTYYADSVKGRFTISRDNAKNTVYLQMNSLKPEDTAVYYCNAGYTFVPADLTDEYYWGQGTQVTVSS”: the “polyreactivity (PSR sort gate)” value is recorded as “low polyreactivity”.

On to “QVQLVESGGGIVQAGGSHRLSCAASGRTFYRYAMGWYRQAPGTERELVAAITRRSGNTYYADSVKGRFTISRDNAKNNVYLQMISLKPEDTAVYYCAADPETWSPHYESLGYYWGQGTQVTVSS”, for which the “polyreactivity (PSR sort gate)” value is recorded as “high polyreactivity”.
